# B1: Delta-RFP (natural protein)
# chain: QVHSSGSFELRLKYFSNDHGRDNEGRCCSGESDGATGKCLGSCKTRFRVCLKHYQATIDTTSQCTYGDVITPILGENSVNLTDAQRFQNKGFTNPIQFPFSFSWPGTFSLIVEAWHDTNNSGNARTNKLLIQRLLVQQVLEVSSEWKTNKSESQYTSLEYDFRVTCDLNYYGSGCAKFCRPRDDSFGHSTCSETGEIICLTGWQGDYCHIPKCAKGCEHGHCDKPNQCVCQLGWKGALCNECVLEPNCIHGTCNKPWTCICNEGWGGLYCNQDLNYCTNHRPCKNGGTCFNTGEGLYTCKCAPGYSGDDCENEIYSCDADVNPCQNGGTCIDEPHTKTGYKCHCANGWSGKMCEEKVLTCSDKPCHQGICRNVRPGLGSKGQGYQCECPIGYSGPNCDLQLDNCSPNPCINGGSCQPSGKCICPAGFSGTRCETNIDDCLGHQCENGGTCIDMVNQYRCQCVPGFHGTHCSSKVDLCLIRPCANGGTCLNLNNDYQCTCRAGFTGKDCSVDIDECSSGPCHNGGTCMNRVNSFECVCANGFRGKQCDEESYDSVTFDAHQYGATTQARADGLTNAQVVLIAVFSVAMPLVAVIAACVVFCMKRKRKRAQEKDDAEARKQNEQNAVATMHHNGSGVGVALASASLGGKTGSNSGLTFDGGNPNIIKNTWDKSVNNICASAAAAAAAAAAADECLMYGGYVASVADNNNANSDFCVAPLQRAKSQKQLNTDPTLMHRGSPAGSSAKGASGGGPGAAEGKRISVLGEGSYCSQRWPSLAAAGVAGACSSQLMAAASVAGSGAGTAQQQRSVVCGTPHM
# B2: Chico-RFP (natural protein)
# chain: MASISDDGMALSGYLKKLKTMKKKFFVLYEETSTSAARLEYYDTEKKFLQRAEPKRVIYLKNCFNINRRLDTKHRFVIVLSSRDGGFGIVLENENDLRKWLDKLLVLQRNIANSNGTAHSPYDHVWQVVIQKKGISEKVGITGTYHCCLTSKSLTFVCIGPEKTPNGEDRVASIEILLTTIRRCGHASPQCIFYVELGRQSVLGSGDLWMETDNAAIATNMHNTILSAMSAKTESNTNLINVYQNRPDLSHEPMRKRSSSANEASKPINVNVIQNSQNSLELRSCSSPHNYGFGRERCDSLPTRNGTLSESSNQTYFGSNHGLRSNTISGIRPHSTNKHSNSPTFTMPLRCSESEESSISVDESDDNGSFSHYRLNTRSSETAIPEENIDDFASAELFSKVTEQNVSDENYIPMNPVNPTDAIHEKEKADMQRLEDASLHFNFPEHASEKLAKDFDLDSDNQCCRPIRAYSIGNKVEHLKFNKRLGHLNDTGQNPNRVRAYSVGSKSKIPRCDLQRVVLVEDNKHEFTANRSQSSITKEGTSYGSSANRQKKSTSAPLLSLKNQINSDRMSDLMEIDFSQATNLEKQKFIKNNEIPKYIENVFPKAPRTDSSSLTLHATSQKDIFNGTKLNNTAITSEDGYLEMKPVGNGYTPSSNCLPMKVEKLKLSDYQTAPPLTATAAPVHDLNKISTYNISAEKWREQPSRSEEKKSNSPLNDNTFSSKPTNVESTSKSHDVHSANQIDCEKVCAQSSDKLNNHLADKIVENNNLDIGGHEEKKLVHSISSEDYTQIKDKSNDFTKFNEAGYKILQIKSDSSLISSKLYQKGIHKDNLERSQRLTESVNTIPDNATATAVSSSSLTKFNINSAKPAAAADSRSTGTDPSTPQNILQIKDLNFPSRSSSRISQPELHYASLDLPHCSGQNPAKYLKRGSRESPPVSACPEDGNTYAKIDFDQSDSSSSSSNIFNT
# What was measured:
# InR-CFP (Drosophila) [1] = target: InR-CFP (Drosophila) (UniProt P09208); assay: FRET or BRET; sensitised emission FRET, CFP donor and mRFP acceptor, confocal microscopy of fixed larval salivary glands co-expressing both fusions (hsp-Gal4); glands incubated 15 min in Schneider's medium with insulin (100 nM); FRETeff >=10% taken as positive
# UniProt P09208, sequence (P09208 1086-2144): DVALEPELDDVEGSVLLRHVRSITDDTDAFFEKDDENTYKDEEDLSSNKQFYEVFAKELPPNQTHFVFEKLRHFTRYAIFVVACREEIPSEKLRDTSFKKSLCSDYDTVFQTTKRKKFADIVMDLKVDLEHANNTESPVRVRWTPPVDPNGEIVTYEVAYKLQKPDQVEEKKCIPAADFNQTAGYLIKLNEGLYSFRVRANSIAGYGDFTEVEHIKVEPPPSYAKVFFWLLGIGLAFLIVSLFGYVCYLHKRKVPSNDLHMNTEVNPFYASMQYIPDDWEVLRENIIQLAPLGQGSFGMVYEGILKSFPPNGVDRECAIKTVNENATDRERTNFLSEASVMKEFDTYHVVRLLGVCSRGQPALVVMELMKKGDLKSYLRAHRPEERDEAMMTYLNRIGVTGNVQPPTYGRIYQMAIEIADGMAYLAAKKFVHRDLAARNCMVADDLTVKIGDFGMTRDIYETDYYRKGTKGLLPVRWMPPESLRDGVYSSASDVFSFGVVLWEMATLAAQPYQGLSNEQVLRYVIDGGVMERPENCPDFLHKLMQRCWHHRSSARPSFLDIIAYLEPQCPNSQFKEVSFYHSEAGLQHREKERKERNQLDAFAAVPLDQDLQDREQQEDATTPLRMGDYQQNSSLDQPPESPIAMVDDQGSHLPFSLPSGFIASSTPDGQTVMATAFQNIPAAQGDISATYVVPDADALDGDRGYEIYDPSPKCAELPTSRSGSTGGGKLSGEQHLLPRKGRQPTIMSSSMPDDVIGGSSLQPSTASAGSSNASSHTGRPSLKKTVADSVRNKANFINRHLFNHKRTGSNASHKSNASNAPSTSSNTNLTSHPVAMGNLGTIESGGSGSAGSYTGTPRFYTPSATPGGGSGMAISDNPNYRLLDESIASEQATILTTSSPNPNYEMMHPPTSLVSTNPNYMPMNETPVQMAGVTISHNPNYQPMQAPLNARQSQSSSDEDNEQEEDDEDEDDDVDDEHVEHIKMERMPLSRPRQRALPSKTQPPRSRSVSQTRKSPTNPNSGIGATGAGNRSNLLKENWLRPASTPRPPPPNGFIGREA
# InR-CFP (Drosophila) [2] = target: InR-CFP (Drosophila) (UniProt P09208); assay: FRET or BRET; sensitised emission FRET, CFP donor and mRFP acceptor, confocal microscopy of fixed larval salivary glands co-expressing both fusions (hsp-Gal4); glands incubated 15 min in Schneider's medium without insulin; FRETeff >=10% taken as positive
# Chico-RFP (Drosophila) [3] = target: Chico-RFP (Drosophila) (UniProt Q9XTN2); assay: FRET or BRET; sensitised emission FRET, CFP donor and mRFP acceptor, confocal microscopy of fixed larval salivary glands co-expressing both fusions (hsp-Gal4); glands incubated 15 min in Schneider's medium with insulin (100 nM); FRETeff >=10% taken as positive
# Chico-RFP (Drosophila) [4] = target: Chico-RFP (Drosophila) (UniProt Q9XTN2); assay: FRET or BRET; sensitised emission FRET, CFP donor and mRFP acceptor, confocal microscopy of fixed larval salivary glands co-expressing both fusions (hsp-Gal4); glands incubated 15 min in Schneider's medium without insulin; FRETeff >=10% taken as positive
# Lnk-CFP (Drosophila) = assay: FRET or BRET; sensitised emission FRET, negative controls with Delta-RFP as acceptor in fixed larval salivary glands; insulin condition not stated; absence of FRET yields values <3%
# InR-CFP (Drosophila) [5] = target: InR-CFP (Drosophila) (UniProt P09208); assay: as above
# InR-CFP (Drosophila) [6] = target: InR-CFP (Drosophila) (UniProt P09208); assay: FRET or BRET; sensitised emission FRET, CFP donor and mRFP acceptor, confocal microscopy of fixed larval salivary glands co-expressing both fusions (hsp-Gal4); glands incubated 15 min in Schneider's medium without insulin; FRETeff >=10% taken as positive; remark: listed apart in the source
# InR-CFP (Drosophila) [7] = target: InR-CFP (Drosophila) (UniProt P09208); assay: FRET or BRET; sensitised emission FRET, CFP donor and mRFP acceptor, confocal microscopy of fixed larval salivary glands co-expressing both fusions (hsp-Gal4); glands incubated 15 min in Schneider's medium with insulin (100 nM); FRETeff >=10% taken as positive; remark: listed apart in the source
molecule,measurement,setting,value
Lnk-RFP (natural protein),FRET efficiency (FRETeff),InR-CFP (Drosophila) [1],14%
same,percent of tissue samples with positive FRET,InR-CFP (Drosophila) [1],53%
same,FRET efficiency (FRETeff),InR-CFP (Drosophila) [2],10.8%
same,percent of tissue samples with positive FRET,InR-CFP (Drosophila) [2],60%
Lnk-CFP (natural protein),FRET efficiency (FRETeff),Chico-RFP (Drosophila) [3],14.8%
same,percent of tissue samples with positive FRET,Chico-RFP (Drosophila) [3],73%
same,FRET efficiency (FRETeff),Chico-RFP (Drosophila) [4],13.3%
same,percent of tissue samples with positive FRET,Chico-RFP (Drosophila) [4],30%
B1,FRET efficiency (FRETeff),Lnk-CFP (Drosophila),< 3%
same,FRET efficiency (FRETeff),InR-CFP (Drosophila) [5],< 3%
B2,FRET efficiency (FRETeff),InR-CFP (Drosophila) [6],13.5%
same,percent of tissue samples with positive FRET,InR-CFP (Drosophila) [6],20%
same,FRET efficiency (FRETeff),InR-CFP (Drosophila) [7],14.1%
same,percent of tissue samples with positive FRET,InR-CFP (Drosophila) [7],71%
